# Assay results reported in KR20220001106A (dated 2022).
# Numbering of substitutions follows the chain as printed.
# B1: Hz1 (humanized antibody made with SEQ ID NO 28 and SEQ ID NO 29) (antibody, V domains shown)
# VH: EVQLVESGGGLVKPGGSLRLSCAASGIDLNRYSLTWVRQAPGKGLEWVGIVGGSGVTYYANWAKGRFTISRDSAKNSLYLQMNSLRAEDTAVYFCARGSDRSAYAPDIWGPGTLVTVSS
# VL: DIQMTQSPSSLSASVGDRVTINCQSSQSIYSNNYLAWYQQKPGKPPKLLLYQASKLASGVPSRFSGSGSGTDFTLTISSLQPEDVATYYCLGVYDDDADNAFGGGTELEIKR
# notes: Whole IgG from vector pCEP6-WPRE with an Fc part
# B2: Hz2 (humanized antibody made with SEQ ID NO 30 and SEQ ID NO 31) (antibody, V domains shown)
# VH: B1 VH with K13Q, A24V, V37I, G49A, S73D, A74S, S77T, F94Y, P111Q
# VL: B1 VL with M4L, N22T, P45A, V85F, G104Q, E107K, L108V
# notes: as for B1
# B3: Hz2-F (antibody with SEQ ID NO 32 and SEQ ID NO 31) (antibody, human IgG1, L234A L235A, V domains shown)
# VH: B1 VH with K13Q, A24V, V37I, G49A, S73D, A74S, S77T, F94Y, P111Q
# VL: B1 VL with M4L, N22T, P45A, V85F, G104Q, E107K, L108V
# notes: copies: 2 + 2
# B4: RIgG1 (rabbit antibody made with SEQ ID NO 24 and SEQ ID NO 25) (antibody, V domains shown)
# VH: QSVEESGGRLVTPGTPLTLTCTVSGIDLNRYSLTWVRQAPGKGLEWIGIVGGSGVTYYANWTKGRFTISKTSTTVDLKMTSLTTEDTATYFCARGSDRSAYAPDIWGPGTLVTISS
# VL: ELDMTQTPSSVSAAVGGTVTINCQSSQSVYSNNYLAWYQQKPGQPPKLLLYQASKLASGVSSRFSGSGSGTHFTLTISGVQCDDAATYYCLGVYDDDADNAFGGGTELEILR
# notes: Converted from scFv to whole IgG in vector pCEP6-WPRE, which carries an Fc part; The ELISA detected it with anti-hIgG-Fc; also called 2-19 (IgG form)
# B5: Lu007 (SEQ ID NO 33, SEQ ID NO 34) (antibody, V domains shown)
# VH: EVQLVESGGGLVQPGGSLRLSCAASGYDFTHYGMNWIRQAPGKGLEWVGWINTYTGEPTYAADFKRRFTFSLDTSKSTVYLQMNSLRAEDTAVYYCAKYPHYYGTSHWYFDVWGQGTLVTVSS
# VL: DIQLTQSPSSLSASVGDRVTITCSASQDISNYLNWYQQKPGKAPKVLIYFTSSLHSGVPSRFSGSGSGTDFTLTISSLQPEDFATYYCQQYSTVPWTFGQGTKVEIKR
# notes: Tested as a purified whole antibody, detected with anti-hIgG-Fc; also called variant ranibizumab; variant Lucentis
# Molecular target: T1, recombinant human VEGF165 (Sino biological) (human, UniProt P15692-4 27-191)
# T1 construct: Sino Biological VEGF165 was used in the Octet assay
# T1 sequence (P15692 other isoform, or with tags, fused parts or gaps limits assumed): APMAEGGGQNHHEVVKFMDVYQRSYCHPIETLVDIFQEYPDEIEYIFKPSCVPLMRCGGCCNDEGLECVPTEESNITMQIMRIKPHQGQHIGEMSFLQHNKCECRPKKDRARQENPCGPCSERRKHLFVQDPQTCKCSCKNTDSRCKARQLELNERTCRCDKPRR
# Experiment: Octet red96E BLI, VEGF165 amine-coupled on AR2G sensor, antibody as analyte, 30 C
Kd [pM],koff [s⁻¹],kon [M⁻¹ s⁻¹],Binder
4.71,3.22e-06,685000,B1
1.93,9.73e-07,505000,B2
3.98,3.08e-06,775000,B3
3.98,3.08e-06,775000,B4
12.2,2.89e-06,237000,B5
